# Measured values taken from PMC11577753, “Identification and characterization of a novel formaldehyde dehydrogenase in Bacillus subtilis” (Applied and Environmental Microbiology, 2024).
# Substrate: C=O
# Assay: purified protein
# Format: biochemical, Bacillus subtilis
# Details: 10 mM NAD+, 50 mM BISTRIS propane pH 9.0, 25 mM NaCl, 37 °C (Fig 6 legend; methods say 40 °C)
protein,measurement,value
"YycR (Bacillus subtilis subsp. subtilis str. 168) (protein, full-length, C-terminal His tag (pNIC-CH) kept, E. coli T7 Express, HisTrap purified, 44 kDa; zinc-type, metal as purified) MGGMALTGNKAVVYKGKGTVAVEDIGYPELILRDGPGVPKANVNRKCEHGVILKVITTNICGSDQHMVRGRTTAPEGLVLGHEITGEVIETGRDVEFIKKGDIVSVPFNIACGRCVMCKTQKTHVCLNVNPDRPGSAYGYVDMGGWVGGQSEYVMVPYADFQLLVFPDKEQALEKILDLTMLSDIFPTGFHGAYTAGVQTGSTVYIAGAGPVGLAAAHSAQLLGASTVIVGDLNEDRLAQARSFGCETVNVQKHDRLGEQIEQILGEPTVDAAVDCVGFEASGHGNQGEAPAAVLNSIMDVTQVGGSLGIPGLYVTEDPGAKDADAKTGSLKIRFGLGWAKAHTFVTGQTPAMTYNRNLMKAILSGRAQIAKAVNATVISLDDAPKGYSDFDKGAAKKFVIDPHGTLK",Km,190 ± 50 µM
same,kcat,0.52 s⁻¹
